Biological target: p16 (Homo sapiens, UniProt Q8N726)
Assay: Protein-protein interaction on SWNT/CHI array, Förster distance calculation
Conditions: distance change after analyte protein p16, Förster equation
Method: Reaction mixtures for cell-free protein expression were added to each array wells. The fluorescent intensities of each SWNT/CHI well were taken to track the intensity changes. To initiate protein synthesis, 1 μl PCR-amplified DNAs were added to each well a humidified chamber at 37° C. for 2 hours. The arrays were washed three times for 10 min each with PBS buffer (pH 7.4, 100 mM) at RT and then PL spectra were taken. To analyze protein-protein interaction on SWNT/XHI array, anti-Histag antibody or cell-free expressed protein mixtures were added to each well and then PL spectra were taken to compare the intensity change.
Near-infrared photoluminescence spectra were acquired using 785 nm excitation and an Acton SP-150 spectrograph coupled to a Princeton instruments OMA V InGaAs detector or with Kaiser Holospec f/1.8 Imaging Spectrograph (Kaiser Optical).

Chain of p16 (Q8N726 with tags, fused parts or gaps): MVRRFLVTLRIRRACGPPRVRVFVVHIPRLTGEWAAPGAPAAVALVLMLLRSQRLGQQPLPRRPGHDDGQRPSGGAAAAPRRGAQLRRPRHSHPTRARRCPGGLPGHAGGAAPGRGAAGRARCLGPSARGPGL

- Δd2: 0.06338
B1: CDK4: human derived protein (ExPASy P11802), on-chip cell-free expressed with His-tag (protein, UniProt P11802 2-303, looked up)
Cyclin-dependent kinase 4: ATSRYEPVAEIGVGAYGTVYKARDPHSGHFVALKSVRVPNGGGGGGGLPISTVREVALLRRLEAFEHPNVVRLMDVCATSRTDREIKVTLVFEHVDQDLRTYLDKAPPPGLPAETIKDLMRQFLRGLDFLHANCIVHRDLKPENILVTSGGTVKLADFGLARIYSYQMALTPVVVTLWYRAPEVLLQSTYATPVDMWSVGCIFAEMFRRKPLFCGNSEADQLGKIFDLIGLPPEDDWPRDVSLPRGAFPPRGPRPVQSVVPEMEESGAQLLLEMLTFNPHKRISAFRALQHSYLHKDEGNPE
modifications: His-tag
